Laboratory results as given in article PMC12412624, “Engineered Cas12j‐8 is a Versatile Platform for Multiplexed Genome Modulation in Mammalian Cells”.
Changes are numbered by the printed parent chain.

What was measured:
[1] = tested on: T1, dCas12j-8 D416R D416R;D369A;E567A;D658A (bacteriophage (metagenome)); settings: HEK293T cells; panel 1c (compare within a panel only); scale: mean GFP / mean GFP of wild type, printed, no background subtraction
T1 sequence: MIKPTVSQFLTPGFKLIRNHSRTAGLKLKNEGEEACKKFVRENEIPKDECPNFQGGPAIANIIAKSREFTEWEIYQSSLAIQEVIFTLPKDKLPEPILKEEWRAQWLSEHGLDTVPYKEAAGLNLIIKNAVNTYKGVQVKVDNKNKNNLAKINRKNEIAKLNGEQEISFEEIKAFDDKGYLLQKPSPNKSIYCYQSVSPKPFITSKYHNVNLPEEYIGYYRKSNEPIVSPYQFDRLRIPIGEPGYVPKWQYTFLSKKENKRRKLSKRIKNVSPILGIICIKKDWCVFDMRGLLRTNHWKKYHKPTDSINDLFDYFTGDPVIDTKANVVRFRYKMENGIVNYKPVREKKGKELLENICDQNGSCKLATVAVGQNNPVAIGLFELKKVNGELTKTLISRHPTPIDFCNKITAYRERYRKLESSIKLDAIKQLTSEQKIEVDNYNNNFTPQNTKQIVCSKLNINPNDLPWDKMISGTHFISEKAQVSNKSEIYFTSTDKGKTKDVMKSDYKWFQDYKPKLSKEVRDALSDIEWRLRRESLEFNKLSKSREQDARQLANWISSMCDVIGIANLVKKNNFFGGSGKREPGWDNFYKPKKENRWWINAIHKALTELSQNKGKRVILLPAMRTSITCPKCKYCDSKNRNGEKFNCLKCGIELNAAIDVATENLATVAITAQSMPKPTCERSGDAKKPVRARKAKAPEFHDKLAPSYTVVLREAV

[2] = tested on: T2, dCas12j-8 E258R+D313R+D495R+D527R+E547R E258R;D313R;D495R;D527R;E547R;D369A;E567A;D658A (bacteriophage (metagenome)); settings: HEK293T cells; panel 1e (compare within a panel only); scale: mean GFP / mean GFP of wild type, printed, no background subtraction
T2 sequence: T1 sequence with E258R, D313R, R416D, D495R, D527R, E547R

[3] = tested on: T3, dCas12j-8 E31R E31R;D369A;E567A;D658A (bacteriophage (metagenome)); settings: HEK293T cells; panel 1c (compare within a panel only); scale: mean GFP / mean GFP of wild type, printed, no background subtraction
T3 sequence: T1 sequence with E31R, R416D

[4] = tested on: T4, dCas12j-8 WT D369A;E567A;D658A (bacteriophage (metagenome)); settings: HEK293T cells; panel 1c (compare within a panel only); scale: mean GFP / mean GFP of wild type, printed, no background subtraction
T4 sequence: T1 sequence with R416D

For “CUUUCAAGACUAAUAGAUUGCUCCUUACGAGGAGACACUCCCUAUCAGUGAUAGAG / TTNACTCCCTATCAGTGATAGAG / CTCTATCACTGATAGGGAGTNAA [TetO]”, the binding signal [1] was 0.46, the binding signal [2] was 5.89 and the binding signal [3] was 0.82. The binding signal [4] was 1.
